Where a chain is given by its changes, count along the chain named. Names and notes keep the numbering of the source.
B1: ParC55, 55.5 kDa N-terminal breakage-reunion domain of Streptococcus pneumoniae topoisomerase IV subunit A (ParC) (domain or fragment)
chain: MSNIQNMSLEDIMGERFGRYSKYIIQDRALPDIRDGLKPVQRRILYSMNKDSNTFDKSYRKSAKSVGNIMGNFHPHGDSSIYDAMVRMSQNWKNREILVEMHGNNGSMDGDPPAAMRYTEARLSEIAGYLLQDIEKKTVPFAWNFDDTEKEPTVLPAAFPNLLVNGSTGISAGYATDIPPHNLAEVIDAAVYMIDHPTAKIDKLMEFLPGPDFPTGAIIQGRDEIKKAYETGKGRVVVRSKTEIEKLKGGKEQIVIIEIPYEINKANLVKKIDDVRVNNKVAGIAEVRDESDRDGLRIAIELKKDANTELVLNYLFKYTDLQINYNFNMVAIDNFTPRQVGIVPILSSYIAHRREVILARSRFDKEKAEKRLHIVEGLIRVISILDEVIALIRASENKADAKENLKVSYDFTEEQAEAIVTLQLYRLTNTDVVVLQEEEAELREKIAMLAAIIGDERTMYNLMKKELREVKKKFATPRLSSLEDTAKALE
notes: ParC (topoisomerase IV subunit A), S. pneumoniae strain 7785, residues 1-490, with the substitution I489L needed for plasmid construction; also called wild-type ParC55; N-terminal ParC domain; source: E. coli, pET29a expression plasmid, purified by Ni2+-NTA chromatography; not shown: His6, C-terminal, kept
B2: ParC55 Cys426 (ParC55 with Arg426 changed to Cys) (domain or fragment)
chain: B1 chain with R426C
notes: PDB 2NOV holds the parent (wild-type ParC55); No entry of its own is named for the Cys426 data set; also called ParC Cys426; Cys426 mutant; source: E. coli, purified by Ni2+-NTA chromatography as for wild-type ParC55

Biological target: the molecule itself
Assay: crystal structure; hanging drop vapor diffusion at ambient temperature; space group I222; solved by molecular replacement; asymmetric unit of two biological dimers; wild-type data to 2.7 Å, Cys426 data to 3.25 Å

| Protein | binding result |
| --- | --- |
| B1 | binds |
| B2 | binds |

Source: PMC1810434, “Breakage-Reunion Domain of Streptococcus pneumoniae Topoisomerase IV: Crystal Structure of a Gram-Positive Quinolone Target” (PLoS ONE, 2007)
